This is an account of results in US9273342B2, “Methods and systems for evaluating and predicting the reactivity of monooxygenase enzymes” (University of Rochester, priority 2011, dated 2016).

Type in all cases: biochemical
Experiment [1] in a line: Monooxygenase activity on artemisinin (ART), total turnovers by HPLC after benzoyl chloride derivatization. The conditions noted are these: 0.5 mM ART, 1 μM P450 variant; mol hydroxylation products/mol enzyme. An excerpt: Additional 5,000 FL#62-derived variants were produced by simultaneous active-site mutagenesis and subjected to high throughout fingerprinting as described in Example 2. From the acquired fingerprint data, 259 functionally diverse variants (i.e., with a unique fingerprint) were isolated according to the procedure described in Example 2 and combined with the previously isolated 261 variants (Example 2), to yield a collection of 520 functionally diverse, fingerprinted monooxygenases. […] The ART oxygenation activity of the training set P450s was characterized by LC-MS analysis of reactions with ART and each of these variants and quantified in terms of total turnovers (TTN). […] The fingerprints of the training set P450s (both ART-reactive and ART-unreactive) were then correlated with the measured ART activities (TTN values) by multiple linear regression (MLR) analysis, where ART activity is the dependent variable, Y, and the five components of their fingerprints (corresponding to the normalized activities on probes 1-5) are five independent variables (x1, x2, x3, x4, x5) potentially correlated with Y. This process yielded best-fit regression coefficients for the training set and a candidate fingerprint-based model (Y=0.44x1+0.52x2+0.44x3+0.72x4+0.47x5) predictive of ART-reactivity. […]

Experiment [2] is described as follows: Regio- and stereoselectivity (site-selectivity) of ART hydroxylation, product distribution by HPLC. An excerpt: Additional 5,000 FL#62-derived variants were produced by simultaneous active-site mutagenesis and subjected to high throughout fingerprinting as described in Example 2. From the acquired fingerprint data, 259 functionally diverse variants (i.e., with a unique fingerprint) were isolated according to the procedure described in Example 2 and combined with the previously isolated 261 variants (Example 2), to yield a collection of 520 functionally diverse, fingerprinted monooxygenases. From this pool, twenty monooxygenases were randomly isolated to serve as the training set for generating a fingerprint model predictive of ART-reactivity and ranking the members of the monooxygenase library according to this reactivity property, as schematically illustrated in FIG. 13. The ART oxygenation activity of the training set P450s was characterized by LC-MS analysis of reactions with ART and each of these variants and quantified in terms of total turnovers (TTN). […] The fingerprints of the training set P450s (both ART-reactive and ART-unreactive) were then correlated with the measured ART activities (TTN values) by multiple linear regression (MLR) analysis, where ART activity is the dependent variable, Y, and the five components of their fingerprints (corresponding to the normalized activities on probes 1-5) are five independent variables (x1, x2, x3, x4, x5) potentially correlated with Y. This process yielded best-fit regression coefficients for the training set and a candidate fingerprint-based model (Y=0.44x1+0.52x2+0.44x3+0.72x4+0.47x5) predictive of ART-reactivity. Using this model, the remaining P450s in the 520-member collection of fingerprinted P450s were ranked (from highest to lowest predicted ART-reactivity). The 50 top-ranking variants as well as the 20 bottom-ranking variants were then tested experimentally in order to validate the predictions.
Measurement of Monooxygenase Activity on Artemisinin (ART). These isolated ART hydroxylation products were used as standards to generate calibration curves for quantifying ART-hydroxylation activity of FL#62 and the other monooxygenases. This activity was measured as total turnovers via quantification of the hydroxylation products from enzymatic reactions via derivatization with benzoyl chloride followed by HPLC analysis. Briefly, after the enzymatic reaction (0.5 mM ART, 1 μM P450 variant (purified or in cell lysate); 2 μM […], 100 μM NADP^+, 50 mM phosphoric acid), the mixture was added with 9-fluorenone as internal standard (0.5 mM) and extracted with dicholoromethane (0.2 mL). After removing the solvent, the residue was added with 0.1 mL dichloromethane, benzoyl chloride (5 equiv.), and DMAP (10 equiv.) for 3 hours at room temperature. The derivatized products (benzoyl esters) were analyzed using an Agilent 1200 UPLC. Analytical condition: Agilent XDB-C18 column (1.8 um, 4.4×50 mm); UV wavelength: 230 nm; Solvent A: 1% trifluoroacetic acid in deionized H2O; Solvent B: 1% formic acid in acetonitrile. gradient condition: 0-1 min: 20% B; 1-8 mins: 20% B to 90% B; 8-10 mins: 90% B; […]: 90% B to 20% B; 10.3-11.3 min: 20% B. Flow rate: 0.8 mL/min. The area under the curve (AUC) corresponding to the ART hydroxylated products were normalized to the internal standard AUC and used to quantify these products using the calibration curves. Total turnover numbers were calculated from number of mol hydroxylation products/mol enzyme. […]

Experiment [3] can be described thus: Fingerprinting: demethylation activity on methoxy probes 1-5, Purpald colorimetric assay. Conditions: formaldehyde formation, FIG. 5A. On the procedure: To test the viability of compounds I-5 as probes, the fatty acid hydroxylase CYP102A1 (SEQ ID NO 1) from Bacillus megaterium and […] engineered variants thereof (SEQ ID NO 3, SEQ ID NO 4, SEQ ID NO 5, SEQ ID NO 6, SEQ ID NO 8, SEQ ID NO 11, SEQ ID NO 12, SEQ ID NO 14, SEQ ID NO 15) were fingerprinted. […] Parallel reactions with 1-5 were carried out using these P450s in purified form and a NADPH cofactor regeneration system containing a […] (PTDH).
We investigated the utility of these probes for high-throughput profiling of a large library of engineered monooxygenase variants. […] The P450 libraries were expressed in 96-well plates (DH5a cells) and screened against probes 1-5 in parallel to acquire a fingerprint for each functional P450 variant occurring in these libraries. Reactions with the probes (1 mM, 60 min) were carried out using cell lysate in the presence of the phosphite/PTDH cofactor regeneration system, and probe activity was quantified based on absorbance at 550 nm after 60-min incubation with Purpald (30 mM). […] This example illustrates how probes of general formula II such as compound 1-5 could be used for fingerprinting a large library of monooxygenases in a high throughput manner.
Expression and Fingerprinting of P450 Libraries in 96-Well Plates. 96-deep well plates containing 400 μL LB medium (100 mg ampicillin L-1) per well were inoculated with single colonies from the P450 libraries. The total number of screened P450 variants was about 10,000. In each plate, 8 wells were inoculated with the parent enzyme FL#62. […] P450 demethylation activity on probe 1-5 was measured in parallel reactions with the aid of a Beckman Coulter Multimek 96 automated pipettor and a TECAN Infinity plate reader. […] After incubation for 1 hour at room temperature, plates were added with 50 μL 2 M NaOH containing 150 mM Purpald and the absorbance at 550 nm measured using the plate reader. The measured demethylation activity of each P450 variant on the five probes was then normalized to the activity of the parent enzyme FL#62 (SEQ ID NO 15) from the same plate. […]

Several values for one entry are separate records, joined by “and”; a condition that tells them apart may be missing. Equal values may be shown once.

B1: FL#62: engineered variant of P450 monooxygenase CYP102A1, SEQ ID NO 15, parent of the libraries (protein)
chain: MTIKEMPQPKTFGELKNLPLLNTDKPVQALMKIADELGEIFKFEAPGRVTRYLSSQRLIKEACDESRFDKNLSQALKFARDSVGDGLATSWTHEKNWKKAHNILLPSFSQQAMKGYHAMMVDIAVQLVQKWERLNADEHIEVSEDMTRLTLDTIGLCGFNYRFNSFYRDQPHPFIISMVRTLDEVMNKLQRANPDDPVYDENKRQCQEDIKVMNDLVDKIIADRKARGEQSDDLLTQMLNGKDPETGEPLDDGNISYQIITFLIAGHETTSGLLSFALYFLVKNPHVLQKVAEEAARVLVDPVPSYKQVKQLKYVGMVLNEALRLWPTAPAFSLYAKEDTVLGGEYPLEKGDEVMVLIPQLHRDKTIWGDDVEEFRPERFENPSAIPQHAFKPFGNGQRACIGQQFALHEATLVLGMMLKHFDFEDHTNYELDIKETLTLKPEGFVVKAKSKKIPLGGIPSPSTEQSAKKVRKKAENAHNTPLLVLYGSNMGTAEGTARDLADIAMSKGFAPQVATLDSHAGNLPREGAVLIVTASYNGHPPDNAKQFVDWLDQASADEVKGVRYSVFGCGDKNWATTYQKVPAFIDETLAAKGAENIADRGEADASDDFEGTYEEWREHMWSDVAAYFNLDIENSEDNKSTLSLQFVDSAADMPLAKMHGAFSTNVVASKELQQPGSARSTRHLEIELPKEASYQEGDHLGVIPRNYEGIVNRVTARFGLDASQQIRLEAEEEKLAHLPLAKTVSVEELLQYVELQDPVTRTQLRAMAAKTVCPPHKVELEALLEKQAYKEQVLAKRLTMLELLEKYPACEMKFSEFIALLPSIRPRYYSISSSPRVDEKQASITVSVVSGEAWSGYGEYKGIASNYLAELQEGDTITCFISTPQSEFTLPKDPETPLIMVGPGTGVAPFRGFVQARKQLKEQGQSLGEAHLYFGCRSPHEDYLYQEELENAQSEGIITLHTAFSRMPNQPKTYVQHVMEQDGKKLIELLDQGAHFYICGDGSQMAPAVEATLMKSYADVHQVSEADARLWLQQLEEKGRYAKDVWAG
As for B1, in experiment [1], the “total turnovers (TTN) for ART hydroxylation” value was 340 TTN and 339 TTN. Besides, the “selectivity for the desired site ((S)-C7 ART hydroxylation, regio- and stereoselectivity)” value in experiment [2] is 83%. In experiment [2] (ART hydroxylation products), the “C6a-hydroxy-ART, share in product ratio C7(S):C7(R):C6a” value is 7; the “C7(R)-hydroxy-ART, share in product ratio C7(S):C7(R):C6a” value was 10; the “C7(S)-hydroxy-ART, share in product ratio C7(S):C7(R):C6a” value came out at 83. Also, the “site-selectivity value for (S)-C7 ART hydroxylation” value in experiment [2] (fraction used for the fingerprint-site reactivity correlation) is on record as 0.83. Moreover, the “probe activity on probes 1-5 (in words)” value in experiment [3] was “high activity on all the probes”.
